Source: patent US12708677B2, “Contrast agents, methods for preparing contrast agents, and methods of imaging” (Georgia State University Research Foundation, Inc., priority 2008, dated 2026)

Tests used:
[1] = mouse, in vivo
Protocol: Blood Circulation Time, Tissue Retention Time, and Bio-distribution. CD-1 mice (25-30 g, a group of four mice were tested) were anesthetized with isoflurane. Appropriate dosages of Gd-CA1.CD2 or Gd-DTPA were i.v. injected (via tail vein). Blood (~50 μl) samples were collected via orbital sinus of the mouse at different time points. The mouse was euthanized at the final time point. Tissue samples from kidney, liver, heart, and lung, were collected. Serum samples were prepared from the collected blood. For the bio-distribution analyses, the animals were euthanized at single time point (indicated) after i.v. administration of the contrast agent (indicated). The organ/tissue samples were collected. Tissue extracts were freshly made from collected samples using commercially available tissue extracting kits (Qiagen). CA1.CD2 was detected and quantified by immunoblotting and Sandwich-ELISA using a monoclonal antibody (OX45, detecting antibody) and a home made polyclonal antibody (PabCD2, capture antibody). A series of known amounts of CA1.CD2 samples mixed with blank mouse scrum or tissue extracts were used as standard in Sandwich-ELISA. ELISA signal from HRP was monitored using a Fluorstar fluorescence microplate reader. For quantification of Gd^3+ in the serum and tissue samples one hour (or indicated times) after the contrast agent administration, animals were sacrificed and critical organs were collected, and the tissues were then digested with concentrated nitric acid at 120-130° C. with proper amount of ^157Gd spike as an internal marker. The digested solution was analyzed by ICP-MS (Element 2) using an isotope dilution method.
CD-1 mice (25-30 g) were anesthetized with isoflurane. Appropriate dosages of Gd-CA1.CD2 and its PEgylated variants (with Gd and ^153Gd) or Gd-DTPA were i.v. injected (via tail vein). Blood (~50 μl) samples were collected via orbital sinus of the mouse at different time points. The mouse was euthanized at the final time point. Tissue samples from kidney, liver, heart, and lung were collected. Serum samples were prepared from the collected blood. For the bio-distribution analyses, the animals were euthanized at single time point (indicated) after i.v. administration of the contrast agent (indicated). The organ/tissue samples were collected. Tissue extracts were freshly made from collected samples using commercially available tissue extracting kits (Qiagen). CA1.CD2 and its variants were detected and quantified by immunoblotting and Sandwich-ELISA using a monoclonal antibody (OX45, detecting antibody) and a home made polyclonal antibody (PabCD2, capture antibody). A series of known amounts of CA1.CD2 samples mixed with blank mouse serum or tissue extracts were used as standard in Sandwich-ELISA. ELISA signal from HRP was monitored using a Fluorstar fluorescence microplate reader. For quantification of Gd^3+ in the serum and tissue samples one hour (or indicated times) after the contrast agent administration, animals were sacrificed and critical organs were collected, and the tissues were then digested with concentrated nitric acid at 120-130° ° C. with proper amount of ^153Gd spike as an internal marker. The digested solution was analyzed.

[2] = Gd^3+-binding affinity, dye competition titration with Fluo-5N; conditions: phosphate 50 mM
Protocol: Gd^3+-binding Affinity Determination, […]-binding affinity of CA1.CD2 was determined by a competition titration with Fluo-5N applied as a Gd^3+ indicator. The fluorescence spectra of Fluo-5N were obtained with a fluorescence spectrophotometer (Photon Technology International, Inc.) with a 10 mm path length quartz cell at 22° C. Fluo-5N emission spectra were acquired at […] to 650 nm with an excitation at 488 nm. […] The experiment was performed with a gradual addition of CA1.CD2. An apparent constant, Kapp, was estimated by fitting the fluorescence emission intensity of Fluo-5N at 520 nm with different CA1.CD2 concentrations as a 1 to 1 binding model. Gd^3+-binding affinity of CA1.CD2, Kd2, was calculated with the following equation: […]
Since metal selectivity for Gd^3+ over other physiological metal ions is for minimizing the toxicity of the agents,^39, 40 we measured metal binding constants using dye-competition assays with various chelate-metal buffer systems (Table 1). […]
Gd^3+-binding affinities of CA1.CD2 and its pegylated variants were determined by a competition titration with Fluo-5N applied as a Gd^3+ indicator (Yang et al., JACS, 2008). The fluorescence spectra of Fluo-5N were obtained with a fluorescence spectrophotometer (Photon Technology International, Inc.) with a 10 mm path length quartz cell at 22° C. […]

[3] = In vitro r1 and r2 proton relaxivity; type: physicochemical; conditions: 3.0 T; 50 μM designed agents, 100 μM Gd-DTPA
EMT6 cells = experiment: Cell binding by immuno-fluorescence staining; type: cell-based, mouse
Excerpt: We first examined whether the designed CA1.HER2/Affi can target cancer cells by cell binding analyses. We used two cancer cell lines for the binding analyses. AU565 is derived from breast carcinoma. EMT6 is a mouse mammary tumor cell line. AU565 cells express very high levels of HER2. The EMT is regarded as a HER2 negative cell line. Binding of the Gd-CA1.HER2/Affi to the cancer cells was first analyzed by immuno-fluorescence staining using a polyclonal antibody against PEGylated parental protein CA1.CD2 (PAbPGCA1).

[4] = Serum stability in human serum at 37° C., SDS-PAGE; type: in vitro ADME; conditions: 75% human serum, 37° C., 6 hours
Protocol: Serum stability. […] The degradation of the protein (disappearance of 12 kDa protein band) was analyzed by SDS-PAGE and visualized by coomassie blue staining. In parallel, the degradation of the protein was also analyzed by immunoblot using antibodies OX54 or PabCD2. The identities of the 12 kDa bands as CA1.CD2 were always verified by immunobloting using antibody PabCD2.
[…] The degradation of the protein (disappearance of 12 kDa protein band) was analyzed by SDS-PAGE and visualized by coomassie blue staining for protein and idiol staining for PEG moiety. In parallel, the degradation of the protein was also analyzed by immunoblot using antibodies OX54 or PabCD2. The identities of CA1.CD2 and pegylated variants were verified by immunoblotting using antibody PabCD2.and idiol staining.

B1: CA1.CD2: designed Gd^3+-binding protein, domain 1 of rat CD2 with ligand residues Glu15, Glu56, Asp58, Asp62, Asp64 (protein)
chain: RDSGTVWGALGHGIELNIPNFQMTDDIDEVRWERGSTLVAEFKRKMKPFLKSGAFEIDANGDLDIKNLTRDDSGTYNVTVYSTNGTRILNKALDLRILE
- time first detectable in the kidney [1]: 15 min
- time of peak in the kidney [1]: 4 to 5 h
- injected dose remaining in the kidney ([1]; 15 h): less than 10%
- time of sharp decrease in blood concentration of Gd^3+ and CA1.CD2 ([1]; iv): about 50 minutes
- removal of Gd^3+ from the protein by phosphate [2]: not able to remove the Gd^3+ from the protein
- contrast enhancement in T1 weighted imaging of samples [3]: did not lead to significant enhancement
- binding to EMT6 cells (EMT6 cells): did not bind to either of the tested cultured cells

B2: Gd-CA1.CD2: CA1.CD2 in complex with Gd^3+ (protein)
chain: B1 chain
- stability of protein-Gd complex in serum [4]: remained intact
- time remaining in blood circulation [1]: more than 3 hours
- time without significant decrease in CA1.CD2 levels in blood ([1]; iv): 45 min
- contrast enhancement in T1 weighted imaging of samples [3]: able to introduce contrast enhancement
